pKd: −log10 of the molar value.
Tests used:
[1] = molecular target: mouse IL-33 (residues 112-270) (mouse); assay: SPR; 1000-1200 RU ST2-Fc captured on a protein A/G-coated CM5 chip; mIL-33 (2 µM) alone or mixed with 2.5 µM HpARI2, HpARI2_CCP2/3 or HpARI2-LD flowed; 20 mM Tris-Cl pH 8.0, 150 mM NaCl, 1 mg/ml salmon sperm DNA, 0.02% Tween-20
[2] = molecular target: mouse IL-33 (residues 112-270) (mouse)
[3] = molecular target: full-length HpARI2 (Alarmin Release Inhibitor, Heligmosomoides polygyrus bakeri) (Heligmosomoides polygyrus bakeri); assay: SPR; 400-450 RU biotinylated HpARI2 captured on the chip; two-fold series (1000 nM to 15.62 nM) of hIL-33 or hIL-33:S158R flowed
[4] = molecular target: full-length HpARI2 (Alarmin Release Inhibitor, Heligmosomoides polygyrus bakeri) (Heligmosomoides polygyrus bakeri); assay: SPR; biotinylated HpARI2 variant (300-400 RU) captured with the Biotin CAPture kit; two-fold series of IL-33 flowed at 40 µl/min; 25 °C; 20 mM Tris-Cl pH 8.0, 150 mM NaCl, 1 mM EDTA, 0.02% Tween-20, 1 mg/ml salmon sperm DNA; Langmuir fit
[5] = molecular target: HpARI2_CCP2/3 (HpARI2 lacking CCP1) (Heligmosomoides polygyrus bakeri); assay: as above
[6] = molecular target: HpARI2-LD (full-length HpARI2 with residues 180-188 of the CCP3 loop deleted) (Heligmosomoides polygyrus bakeri); assay: as above
[7] = molecular target: HpARI2_CCP1/2 (HpARI2 lacking CCP3) (Heligmosomoides polygyrus bakeri); assay: as above
[8] = molecular target: HpARI2-LD (full-length HpARI2 with residues 180-188 of the CCP3 loop deleted) (Heligmosomoides polygyrus bakeri); assay: SPR; screening of HpARI2 variants for mIL-33 binding at one concentration (legend: HpARI2 concentration of 100 nM); same reagents and equipment as the kinetic SPR; n = 3
[9] = molecular target: HpARI2_CCP2/3 (Heligmosomoides polygyrus bakeri); assay: SPR; biotinylated HpARI2 variant (300-400 RU) captured on a Biotin CAPture chip, two-fold series of mIL-33 (or mIL-33 R159A) injected; Biacore T200, 25 °C, 20 mM Tris-Cl pH 8.0, 150 mM NaCl, 1 mM EDTA, 0.02% Tween-20, 1 mg/ml salmon sperm DNA; Langmuir 1:1 fit

Work on “HpARI2-LD (full-length HpARI2 with residues 180-188 of the CCP3 loop deleted) (natural protein)” yielded a percent reduction of mIL-33 binding to ST2-Fc at 2.5 µM HpARI2-LD [1] of 25% and a protein concentration needed for the same inhibition of IL-5 and IL-13 release as wild-type HpARI2 (bone marrow-derived ILC2s) [2] of 100 fold.

With “human IL-33 (from UniProt O95760 1-270) (ligand)” the pKd [3] was 7.19.

“human IL-33 S158R mutant (from UniProt O95760) (ligand)” was tested, and the fold increase of HpARI2 binding against human IL-33 [3] was > 100 fold.

With mouse IL-33 (residues 112-270) (ligand) the pKd [4] was 10.32, the pKd [5] was 8.40 and the pKd [6] was 7.35. The pKd [7] was 7.31, the fold koff against full-length HpARI2 [7] was > 100 fold and the percent reduction of mIL-33 binding against HpARI2 [8] was 60%.

For mouse IL-33 R159A (ligand), the pKd [9] was 5.42.

For mouse IL-33 R159A mutant (ligand), the fold reduction in binding affinity against wild-type mIL-33 [5] was 1000 fold.

From paper PMC11189471
